The data set in a line: yeast display, Sf9 membrane polyspecificity reagent, FACS + sequencing; frameworks hold sequencing errors. In short, it runs like this: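 Nanobodies from a synthetic yeast display library (Saccharomyces cerevisiae BJ5465), induced 36–48 hours with galactose, were stained 1 hour at 4 °C with 10% biotinylated, detergent-solubilized Sf9 membrane reagent, enriched on streptavidin microbeads, then FACS-sorted. Anti-HA (expression) and streptavidin (reagent binding) fluorescence set low and high (top ~1%) gates. Polyreactivity labels come from the gate of origin. Genes were colony-PCR amplified, MiSeq 2 × 250 sequenced and filtered by CDR length.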
Regarding “QVQLVESGGGLVQAGGSLRLSCAASGRIINYNARGWYRQAPGKERELVAAISSSGGSTYYADSVKGRFTISRDNAKNTVYLQMNSLKPEDTAVYYCNALGTTEYWSRDDYWGQGTQVTVSS”, the “polyreactivity (PSR sort gate)” value is “low polyreactivity”.
To “QVQLVESGGGLVQAGGSLRLSCAASGRIIQYNAMGWYRQAPGKERELVAAMSWRSGRTYYADSVKGRFTISRDNAKNTVYLQMNSLKPEDTAVYYCAATSRTSWYGYWGQGTQVTVSS” belongs “high polyreactivity”; to “QVQLVESGGGLVQAGGSLRLSCAASGRIIRRYAMGWYRQAPGKERELVAAISRSGGSTYYADSVKGRFTISRDNAKNTVFLQMKRLKPEDTAVYYCNRRYITYNYDYWGQVTQVTVSS”, “high polyreactivity”.
In the case of “QVQLVESGGGLVQAGGSLRLSCAASGRIIRVNAMGWYRQAPGKERELVAAISGRGGSTYYADSVKGRFTISRDNAKITVYLQMNSLKPEDTAVYYCAKKSYSYGYNSYDYWGQGTQVTVSS”, the “polyreactivity (PSR sort gate)” value is listed as “high polyreactivity”.
Take “QVQLVESGGGLVQAGGSLRLSCAASGRIISPYAMGWYRQAPGKERELVAAISWRGSSTYYADSVKGRFTISRDNAKNTVYLQMNSLKPEDTAVYYCAAVYYRGIQSYDYWGQGTQVTVSS”: the “polyreactivity (PSR sort gate)” value is on record as “low polyreactivity”.
To “QVQLVESGGGLVQAGGSLRLSCAASGRIISRYAMGWYRQAPGKERELVAAISRRGGSTYYADSVKGRFTISRDNAKNTVYLQLNSLKPEDTAVYYCNADTGNRGYDYWGQGTQVTVSS” belongs “high polyreactivity”; to “QVQLVESGGGLVQAGGSLRLSCAASGRIISVYAMGWYRQAPGKERELVATITGGNTNYADSVKGRFTISRDNAKNTVYLQMNSLKPEDTAVYYCAKQFLPSGVYYEYDSWGQGTQVTVSS”, “low polyreactivity”.
To “QVQLVESGGGLVQAGGSLRLSCAASGRIITRNAMGWYRPAPGKERELVAAISSGGSTSYADSVKGRFTISRDNAKNTVYLQLNSVKPEDTAVYYCATKWYWWYDGYYYWGQGTQVTVSS” belongs “low polyreactivity”; to “QVQLVESGGGLVQAGGSLRLSCAASGRIITTYAMGRYRQAPGKERELVAPITSDGRTYYADSVKVRFTISRDNATHSVYLQMYSMKPEDTAVYYCNAAGRYAFPFGYNYWGQGTQVTVSS”, “high polyreactivity”.
To “QVQLVESGGGLVQAGGSLRLSCAASGRIIWSNAMGWYRQAPGKERELVAGITGSGGNTYYADSVKGRFTISRDNAKNTVYLHMNSLKPEDTAVYYCNARSGSRPSSSYRYDYWGQGTQVTVSS” belongs “low polyreactivity”; to “QVQLVESGGGLVQAGGSLRLSCAASGRIIYNAMGWYRQAPGKERELVAAITSNGCSTYYADSVKGLFTISRDTAKNTVYLQMNSLKPEDTAVYYCARDVNSVPSEVKYDYWGQGTQVNVSS”, “low polyreactivity”.
For “QVQLVESGGGLVQAGGSLRLSCAASGRIIYTNAMGWYRQAPGKERELVAAINRSGGITYYADSVKGRFTISRDNAKNTVYLQMNSLKPEDTAVYYCAKDYSWASYNHDYWGQGTQVTVSS”, the “polyreactivity (PSR sort gate)” value is on record as “low polyreactivity”.
Next, “QVQLVESGGGLVQAGGSLRLSCAASGRIIYTYAMGWYRQAPGKERELVAAISWSGGSTYYADSVKGRFTISRDNAKNTVYLQMKSLKPEDTAVYFCNAAYYGYENLSKRGYWGQGTQVTVSS”: “high polyreactivity”; “QVQLVESGGGLVQAGGSLRLSCAASGRIIYVKAMGWYRQAPGKERELVAAISSRGGTTYYADSVKGRFTISRDNAKNSVYLQMNSLKPEDTAVYYCNAGRVRHGNDYWGQGTQVTVSS”: “high polyreactivity”.
As for “QVQLVESGGGLVQAGGSLRLSCAASGRILARYAMGWYRQAPGKERELVAAITSRGGSTSYADSVKGRFTISRDNAKNTVYLQMNSLKPEDTAVYYCAKGERSANGGLFAGRHGYWGQGTQVTVSS”, the “polyreactivity (PSR sort gate)” value is “low polyreactivity”.
Regarding “QVQLVESGGGLVQAGGSLRLSCAASGRILASYAMGWYRQAPGKERELVAAIRYRGSTSYADSVKGRFTISRDNANNTVYLQMNSLKPEDTAVYYCNAGLEYYYWGYTWEFDYWGQGTQVTVSS”, the “polyreactivity (PSR sort gate)” value was “low polyreactivity”.
Next, “QVQLVESGGGLVQAGGSLRLSCAASGRILAWYAMGWYRQAPGKEREFVAGITGSVGSTYYADSVKGRFTISRDKAKNTVYLQMNSLKPEDPAVYYCNKDWDRTSGPKHYYWGQGTQVTVSS”: “low polyreactivity”.
For “QVQLVESGGGLVQAGGSLRLSCAASGRILDRYAMGWYRQAPGKERELVAVITDRGGNTYYADSVKGRFTISRDNAKNTVYLQMNSLKPEDTAVYYCAVYAYWRFRTYYYWGQGTQVTVSS”, the “polyreactivity (PSR sort gate)” value was “high polyreactivity”.
To “QVQLVESGGGLVQAGGSLRLSCAASGRILDVYVMGWYRQAPGKERELVAAISSGGSTYYADSVKGRFTISRDNAKNTVYLQMNSLKPEDTAVYYCAFYYWGQGTQVTVSS” belongs “high polyreactivity”; to “QVQLVESGGGLVQAGGSLRLSCAASGRILFFNAMGWYRQAPGKERELVAAISVSGGSTYYADSVKGRFTISRDNAQNTVYLQMNSLKPEDTAVYYCAKGYDFRRRYDYWGQGTQVTVSS”, “low polyreactivity”.
Next, “QVQLVESGGGLVQAGGSLRLSCAASGRILFGYAMGWYRQAPGKERELVADITSTGSTNYADSVKGRFTISRDNAKNTVYLQMNSLNPEDTAVYYCNARRESYYQRYRVDYWGQGTQVTVSS”: “low polyreactivity”.
Next, “QVQLVESGGGLVQAGGSLRLSCAASGRILFRYGMGWYRQAPGKERELVARISWSGGNTHYADSVKGRFTISRDNAKNTVYLQMNSLKPEDTAVYYCNAYYTYWYPRYDYWGQGTQVTVSS”: “low polyreactivity”.
Take “QVQLVESGGGLVQAGGSLRLSCAASGRILFSYAMGWYRQAPGKERELVATISSGGRTNYADSVKGRFTISRDNAKNTVYLQMNSLKPEDTAVYYCNTEYLVWYPYDYWGQGTQVTVSS”: the “polyreactivity (PSR sort gate)” value is listed as “low polyreactivity”.
To “QVQLVESGGGLVQAGGSLRLSCAASGRILGDYAMGWYIQAPGKERELVAAISSGGTTYYADSVKGRFTISRDNAKNTVYLQMNSLKPEDTAVYYCAALTSTLPAYGYWGQGTQVTVSS” belongs “low polyreactivity”; to “QVQLVESGGGLVQAGGSLRLSCAASGRILGFNVMGWYRQAPGKERELVAAITTSGGSTYYADSVKGRFTISRDNAKNTVYLQMNSLKPEDTAVYYCAARYRRFRFTHYDYWGQGTQVTVSS”, “high polyreactivity”; to “QVQLVESGGGLVQAGGSLRLSCAASGRILGRNAMGRYRQAPGKEREFVAGISYSGTSTYYADSVKGRFTISRDNAKNTVYLQMNSLKPEDTAVYYCAARSTWFQIRYGYWGQGTQVTVSS”, “high polyreactivity”.
With “QVQLVESGGGLVQAGGSLRLSCAASGRILGRNAMGWYRQAPGKEREFVAGISYSGTSTYYADSVKGRFTISRDNAKNTVYLQMNSLKPEDTAVYYCNVKNQVYRRYYYWGQGTQVTVSS”, the “polyreactivity (PSR sort gate)” value is on record as “high polyreactivity”.
“QVQLVESGGGLVQAGGSLRLSCAASGRILGRYAMGWYRQAPGKEREVVATITSGDDTNYADSVKGRFTISRDHAKNTVYLQMNSLKPEDTAVGFWGQGSQVTVSS”: the “polyreactivity (PSR sort gate)” value is given as “low polyreactivity”.
For “QVQLVESGGGLVQAGGSLRLSCAASGRILKRNAMGWYRQAPGKERELVAAISWSTGTTYYADSVKGRFTISRDNAKNTVYLQMNSLKPEDTAVYYCAKQIVSGRRVDRNDYWGQGTQVTVSS”, the “polyreactivity (PSR sort gate)” value is “low polyreactivity”.
On to “QVQLVESGGGLVQAGGSLRLSCAASGRILKSYAMGWYRQAPGKERELVAAITSSGVSTYYADSVKGRFTISRDNAKNTVYLQMNSLKPEDTAVYYCAARNYRYPIMGYWGQGTEVTVSS”, for which the “polyreactivity (PSR sort gate)” value is listed as “high polyreactivity”.
With “QVQLVESGGGLVQAGGSLRLSCAASGRILLTYAMGWYRQAPGKERELVAAISSDSRTYYADSVKGLFTISRDNAKNTVYLQMNSLKPEDTAVYYCVRRRYKYDYWGQGTQVTVSS”, the “polyreactivity (PSR sort gate)” value is listed as “low polyreactivity”.
In the case of “QVQLVESGGGLVQAGGSLRLSCAASGRILLYNAMGWYRQAPGKERELVAAISRSGGSTYYADSVKGRFTISRDNAKNTVYLQMNSLKPEDTAVYYCAAQHGYPRYYYWGQGTQVTVSS”, the “polyreactivity (PSR sort gate)” value is listed as “high polyreactivity”.
To “QVQLVESGGGLVQAGGSLRLSCAASGRILNTYTMGWYRQAPGKERELVAAITSRGGSTYYADSVKGRFTISRDNAKNTVYLQMNSLKPEDTAVYYCAAGYPYDYWGQGTQVTVSS” belongs “high polyreactivity”; to “QVQLVESGGGLVQAGGSLRLSCAASGRILPGNAMGWYRQAPGKERELVATITNGGRTYYADSVKGRFAISRDNAKNTVYLQMNSLKPVDTAVYYCAAVVVRFIYVYFEFEWGQGTQVTVSS”, “low polyreactivity”.
Next, “QVQLVESGGGLVQAGGSLRLSCAASGRILPLYAMGWYRQAPGKERELVADITGSDGSTYYADSVKGRFTISRDNAKNTVYLQMNSLKPEDTAVYYCATDAIGRTPSDPWDYYYWGQGTQVTVSS”: “low polyreactivity”; “QVQLVESGGGLVQAGGSLRLSCAASGRILPWYAMGWYRQEPGKERELVARIRSTDSSNYADSVKGRFTISRDNAKNTVYLQMNSLKPEDTAFYYCAKVQWGFPYAWLGSDYWGQGTQVTVSS”: “low polyreactivity”; “QVQLVESGGGLVQAGGSLRLSCAASGRILRSNAMGWYRQAPVKERELVATISQRGGSTYADSVKGRFTISRDNAKNTVYLQMNSLKPEDTAVYYCNVGVPIGGFMSYWGGDYWGQGTQVTVSS”: “low polyreactivity”.
Regarding “QVQLVESGGGLVQAGGSLRLSCAASGRILRVYAMGWYRQAPGKERELVAAISSGGSTNYADSVKGRFTISRDNAKNTVYLQMNSLKPEDTAVYDCAATVRGVGYRYYYWGQGTQVTVSS”, the “polyreactivity (PSR sort gate)” value is on record as “high polyreactivity”.
To “QVQLVESGGGLVQAGGSLRLSCAASGRILRYNAMGWYRQAAGKERELVAAISSGGSTYADSVKGRFTISRDNAKNTVYLQMNSLKPDDTAVYYCNAPSVGAAFDYWGQGTQVTVSS” belongs “high polyreactivity”; to “QVQLVESGGGLVQAGGSLRLSCAASGRILTTNAMGRYRQAPGKERELVATISTGSGRTYYADSVKGRFTISRDNAKNTVYLQMNSLKPEDTAVYYCAASRTLRKHRYEYWGQGTQVTVSS”, “high polyreactivity”; to “QVQLVESGGGLVQAGGSLRLSCAASGRILTYYAMGWYRPAPGKERELVAAISWRAGSTYYADSVKGRFTISRDNAKNTVYLQMNSLKPEDTAVYYCAADLPYWYNRKPIFPYYYWGQGTQVTVSS”, “high polyreactivity”.

(Values after the nanobody polyreactivity screen of Harvey et al. (2022).)
